The record followed here is patent US20200255499A1 (COUNCIL OF THE QUEENSLAND INSTITUTE OF MEDICAL RESEARCH, published 2020).

What is called Kd is the free concentration of one partner at which half of the binding sites on the other are occupied at equilibrium, for simple one-to-one binding. Low readings indicate a tighter complex, high ones a looser complex.

The target of test [1] is T1, Epstein Barr Virus (EBV) glycoprotein gp350 (Epstein-Barr virus, UniProt P03200 1-860).
T1 construct: Viral antigen: immunogen, coated in the ELISAs, immobilised on the CM5 chip in SPR; also called EBV gp350; gp350 antigen
T1 sequence: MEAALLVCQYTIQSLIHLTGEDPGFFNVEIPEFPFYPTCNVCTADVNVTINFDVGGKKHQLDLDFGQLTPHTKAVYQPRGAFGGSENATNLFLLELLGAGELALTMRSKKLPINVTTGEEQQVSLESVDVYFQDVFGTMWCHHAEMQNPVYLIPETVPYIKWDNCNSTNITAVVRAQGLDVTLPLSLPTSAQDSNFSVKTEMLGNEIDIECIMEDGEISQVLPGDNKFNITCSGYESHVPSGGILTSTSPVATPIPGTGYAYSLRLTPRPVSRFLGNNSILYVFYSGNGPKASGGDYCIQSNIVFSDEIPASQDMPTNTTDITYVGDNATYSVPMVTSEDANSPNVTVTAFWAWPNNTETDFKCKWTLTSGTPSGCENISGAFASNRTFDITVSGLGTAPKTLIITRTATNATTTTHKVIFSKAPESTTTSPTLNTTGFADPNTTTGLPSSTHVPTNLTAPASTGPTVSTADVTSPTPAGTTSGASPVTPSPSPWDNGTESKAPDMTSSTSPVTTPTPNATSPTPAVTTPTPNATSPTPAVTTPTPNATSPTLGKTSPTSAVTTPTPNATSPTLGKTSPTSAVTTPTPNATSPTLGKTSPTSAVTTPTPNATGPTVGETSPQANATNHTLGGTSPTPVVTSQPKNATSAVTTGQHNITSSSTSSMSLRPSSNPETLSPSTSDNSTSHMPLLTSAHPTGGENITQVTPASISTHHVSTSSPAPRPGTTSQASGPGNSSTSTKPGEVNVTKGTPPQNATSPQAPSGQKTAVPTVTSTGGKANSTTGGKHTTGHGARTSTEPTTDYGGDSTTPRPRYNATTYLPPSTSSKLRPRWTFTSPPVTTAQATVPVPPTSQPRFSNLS
Kind of test: monoclonal phage ELISA on gp350. (In an ELISA, binding on a coated surface is turned into a signal by an enzyme label.)

In test [2] the target is T1, Epstein Barr Virus (EBV) glycoprotein …. Kind of test: SPR (Biacore T100), gp350 immobilised on CM5 chip, antibody as analyte, single cycle kinetics. On the technique in general: SPR reads the build-up and loss of mass on a sensor chip optically.
For test [3] the target is unchanged. Kind of test: SPR steady-state affinity plot, 1:1 Langmuir fit (FIG. 11), gp350 immobilised; given as 'affinity constant'.
The target is the same in test [4]. Kind of test: SPR steady-state affinity plot, 1:1 Langmuir fit (FIG. 11), gp350 immobilised; given as 'affinity constant'; 'affinity constant' in M (FIG. 11).
Test [5] shares this target. Put plainly: SPR (Biacore T100), gp350 immobilised on CM5 chip, antibody as analyte, single cycle kinetics; single cycle kinetics (FIG. 10), 'KD value' in nM.
Test [6] has the same target. Put plainly: SPR (Biacore T100), single cycle kinetics, gp350 immobilised on CM5 sensor chip, antibody as analyte.
Test [7] has the same target. Kind of test: SPR (Biacore T100), steady-state affinity plot, 1:1 Langmuir fit, gp350 immobilised on CM5 sensor chip, antibody as analyte.
Test [8] has the same target. Kind of test: SPR (Biacore T100), gp350 immobilised on CM5 chip, antibody as analyte, single cycle kinetics; single cycle kinetics (FIG. 10), 'dissociation value' in nM.
Test [9] has the same target. Put plainly: SPR steady-state affinity plot, 1:1 Langmuir fit (FIG. 11), gp350 immobilised; printed as 'affinity value'; 'affinity value' in M (FIG. 11).
For test [10] the target is unchanged. Put plainly: SPR (Biacore T100), gp350 immobilised on CM5 chip, antibody as analyte, single cycle kinetics; single cycle kinetics (FIG. 10), dissociation constant in nM.

B1: Clone A11, original phage-displayed antibody fragment (other)
VH: MQLVQSGAEVKKPGASVKVSCKTSGYNFNHQGISWLRQAPGQGLEWMGWISGFNGKTNYAQKFQGRVTMTADRSTTTAYMELRSLRSDDTAVYYCASGGEQWLVQNFVHWGQGTLLTVSS
VL: VLTQEPSLTVSPGGTVTLTCASSTGAVTSGYYPNWFQQKPGQAPRALIYSTSNKHSWTPARFSGSLLGGKAALTLSGVQPEDEAEYYCLLYYGGAWVFGGGTKLTVL
notes: The printed VH and VL begin one or two residues later than those of the other clones, so they may be cut short at the N-terminus; also called CloneA11 (phage clone)
In [1], B1 returned an absorbance of over 1 absorbance.

B2: Clone B8 recombinant human IgG1 monoclonal antibody (antibody, V domains shown)
VH: EVQLVESAGEVQKPGESLRISCKASGYTFSHYWIGWVRQLPGKGLEWMGIIYPDDSDSRYSPSFQGQVTMSVDKSINTAYLQWNSLKVSDTATYYCVRHWLKRGSNFGFGFDPWGQGTTLTVSS
VL: ESALTQPASVSGSPGQSITISCTGTSSDVGGYNYVSWYQQHPGKAPKLMIYDVSNRPSGVSNRFSGSKSGNTASLTISGLQAEDEADYYCSSYTSSSTLVFGGGTKLTVLG
notes: also called antibody B8
As to B2, the Kd in test [2] was found to be 0.0333 µM; in [3], 0.829 µM.

B3: Clone B8, original phage-displayed antibody fragment (other)
VH: EVQLVESAGEVQKPGESLRISCKASGYTFSHYWIGWVRQLPGKGLEWMGIIYPDDSDSRYSPSFQGQVTMSVDKSINTAYLQWNSLKVSDTATYYCVRHWLKRGSNFGFGFDPWGQGTTLTVSS
VL: ESALTQPASVSGSPGQSITISCTGTSSDVGGYNYVSWYQQHPGKAPKLMIYDVSNRPSGVSNRFSGSKSGNTASLTISGLQAEDEADYYCSSYTSSSTLVFGGGTKLTVLG
notes: VH and VL are as translated from the PCR products of the original phage clone; also called CloneB8 (phage clone)
For B3, in test [1], the absorbance was over 1 absorbance.

B4: Clone A11 recombinant human IgG1 monoclonal antibody (antibody, V domains shown)
VH: EMQLVQSGAEVKKPGASVKVSCKTSGYNFNHQGISWLRQAPGQGLEWMGWISGFNGKTNYAQKFQGRVTMTADRSTTTAYMELRSLRSDDTAVYYCASGGEQWLVQNFVHWGQGTLLTVSS
VL: ETVLTQEPSLTVSPGGTVTLTCASSTGAVTSGYYPNWFQQKPGQAPRALIYSTSNKHSWTPARFSGSLLGGKAALTLSGVQPEDEAEYYCLLYYGGAWVFGGGTKLTVLG
notes: also called Antibody A11
In the case of B4, the Kd was found to be 0.309 µM in test [4] and 0.000723 µM in test [5].

B5: C10 (antibody, V domains shown)
VH: EVQLVQSGAEVKKPGASVKVSCKASGYTFNAYYIHWVRQAPGQGLDWMGWINPNSGGTNYAQNFKGRVTMTRDTSISTAYLELRSLTSDDTAVYFCATERGYTSSFRRDAFDKWGQGTMLTVSS
VL: EAVVTQPPSASGTPGQGVTISCSGSSSNIGSNFVYWYQQLPGTAPKLLIYRNNQRPSGVPDRFSGSKSATSASLAISGLRSEDEADYYCATWDDSLSGYVFGTGTKLTVLG
notes: Full IgG1 form of phage clone C10, expressed in Expi293F cells; It is not in the list MOLECULES; also called Clone C10 recombinant human IgG1 monoclonal antibody; CloneC10
Turning to B5, the figures for the Kd in [6] and in test [7] were 0.0114 µM and 0.663 µM, respectively.

B6: Clone E10, original phage-displayed antibody fragment (other)
VH: EVQLVQSGAEVKKPGASVEVSCKASGYTFNAYYIHWVRQAPGQGLDWMGWINPNSGGTNYAQNFKGRVTMTRDTSISTAYLELRSLTSDDTAVYFCATERGYTSSFRRDAFDKWGQGTLLTVSS
VL: ESVLTQPPSISAAPGQRVTIPCSGSSSDIGNHYVSWYQQLPGAAPKLLIYEDNKRPSGIPDRFSGSKSGTSASLGITGLQTGDEADYYCGTWDNSLRSGFFGGGTKVTVLG
notes: also called CloneE10 (phage clone)
B6 gave an absorbance in test [1] of over 1 absorbance.

B7: Clone D7, original phage-displayed antibody fragment (other)
VH: EVQLVQSGAEVKKPGASVEVSCKASGYTFNAYYIHWVRQAPGQGLDWMGWINPNSGGTNYAQNFKGRVTMTRDTSISTAYLELRSLTSDDTAVYFCATERGYTSSFRRDAFDKWGQGTMLTVSS
VL: ESVLTQPPSVSAAPGQKVTMSCSGSTSNIGSNSVSWYQHLPGTAPKLLLFDNAKRPSGIPDRFSGSKSGTSATLGITGLQTGDEADYYCGTWDSGLSVMVFGGGTKLTVLG
notes: also called CloneD7 (phage clone)
The molecule B7 yielded an absorbance in test [1] of over 1 absorbance.

B8: Clone C10, original phage-displayed antibody fragment (other)
VH: EVQLVQSGAEVKKPGASVKVSCKASGYTFNAYYIHWVRQAPGQGLDWMGWINPNSGGTNYAQNFKGRVTMTRDTSISTAYLELRSLTSDDTAVYFCATERGYTSSFRRDAFDKWGQGTMLTVSS
VL: EAVVTQPPSASGTPGQGVTISCSGSSSNIGSNFVYWYQQLPGTAPKLLIYRNNQRPSGVPDRFSGSKSATSASLAISGLRSEDEADYYCATWDDSLSGYVFGTGTKLTVLG
notes: also called CloneC10 (phage clone)
For B8, in [1], the absorbance was over 1 absorbance.

B9: Clone B7 recombinant human IgG1 monoclonal antibody (antibody, V domains shown)
VH: EVQLVQSGAEVKKPGASVEVSCKASGYTFNAYYIHWVRQAPGQGLDWMGWINPNSGGTNYAQNFKGRVTMTRDTSISTAYLELRSLTSDDTAVYFCATERGYTSSFRRDAFDKWGQGTMLTVSS
VL: ESVLTQPPSVSAAPGQKVTISCSGSSSNIGNNYVSWYQQLPGTAPKLLIYENNKRPSGIPDRFSGSKSGTSATLGITGLQTGDEAGYYCGTWDSSLSAVVFGGGTKLTVLG
notes: also called Antibody B7
For the molecule B9, the figures for the Kd in test [8] and in [9] were 0.00407 µM and 0.768 µM, respectively.

B10: Clone D7 recombinant human IgG1 monoclonal antibody (antibody, V domains shown)
VH: EVQLVQSGAEVKKPGASVEVSCKASGYTFNAYYIHWVRQAPGQGLDWMGWINPNSGGTNYAQNFKGRVTMTRDTSISTAYLELRSLTSDDTAVYFCATERGYTSSFRRDAFDKWGQGTMLTVSS
VL: ESVLTQPPSVSAAPGQKVTMSCSGSTSNIGSNSVSWYQHLPGTAPKLLLFDNAKRPSGIPDRFSGSKSGTSATLGITGLQTGDEADYYCGTWDSGLSVMVFGGGTKLTVLG
On to B10, for which the Kd in test [10] turned out to be 0.00386 µM; in test [4], 0.465 µM.

B11: Clone B7, original phage-displayed antibody fragment (other)
VH: EVQLVQSGAEVKKPGASVEVSCKASGYTFNAYYIHWVRQAPGQGLDWMGWINPNSGGTNYAQNFKGRVTMTRDTSISTAYLELRSLTSDDTAVYFCATERGYTSSFRRDAFDKWGQGTMLTVSS
VL: ESVLTQPPSVSAAPGQKVTISCSGSSSNIGNNYVSWYQQLPGTAPKLLIYENNKRPSGIPDRFSGSKSGTSATLGITGLQTGDEAGYYCGTWDSSLSAVVFGGGTKLTVLG
notes: also called CloneB7 (phage clone)
As for B11, the absorbance in test [1] was over 1 absorbance.

B12: Clone E10 recombinant human IgG1 monoclonal antibody (antibody, V domains shown)
VH: EVQLVQSGAEVKKPGASVEVSCKASGYTFNAYYIHWVRQAPGQGLDWMGWINPNSGGTNYAQNFKGRVTMTRDTSISTAYLELRSLTSDDTAVYFCATERGYTSSFRRDAFDKWGQGTLLTVSS
VL: ESVLTQPPSISAAPGQRVTIPCSGSSSDIGNHYVSWYQQLPGAAPKLLIYEDNKRPSGIPDRFSGSKSGTSASLGITGLQTGDEADYYCGTWDNSLRSGFFGGGTKVTVLG
In the case of B12, the Kd in [10] turned out to be 0.00223 µM; in test [4], 0.663 µM.
